US20210388087A1 (Chugai, published 2021)

Target: T1, CD3 epsilon homodimer protein (UniProt P07766 23-126)
T1 construct: immobilized on Sensor chip CM4 by amine coupling; also called CD3 (CD3 epsilon)
Test: SPR (Biacore T200), CD3 epsilon homodimer on CM4 chip, one-arm antibody as analyte, 25 C;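 further: homodimer attached to the sensor surface via amine coupling, HBS-EP+ used as running buffer during binding runs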

T1 sequence (P07766 23-126): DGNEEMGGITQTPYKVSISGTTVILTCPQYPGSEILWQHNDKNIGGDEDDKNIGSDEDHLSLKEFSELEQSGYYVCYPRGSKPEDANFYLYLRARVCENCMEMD

ratio of amounts bound (altered form / CE115HA000)	Binder
1.07	CE115HA000 D73G one-arm antibody (antibody, human IgG1, kappa, L234A L235A, N297A, name in Kabat numbering) heavy: QVQLVESGGGVVQPGRSLRLSCAASGFTFSNAWMHWVRQAPGKGLEWVAQIKAKSNNYATYYAESVKGRFTISRDGSKNSLYLQMNSLKTEDTAVYYCRYVHYGAYYGVDAWGQGTTVTVSSASTKGPSVFPLAPSSKSTSGGTAALGCLVKDYFPEPVTVSWNSGALTSGVHTFPAVLQSSGLYSLSSVVTVPSSSLGTQTYICNVNHKPSNTKVDKKVEPKSCDKTHTCPPCPAPEAAGGPSVFLFPPKPKDTLMISRTPEVTCVVVDVSHEDPEVKFNWYVDGVEVHNAKTKPREEQYASTYRVVSVLTVLHQDWLNGKEYKCKVSNKALPAPIEKTISKAKGQPREPQVYTLPPSRCELTKNQVSLSCAVKGFYPSDIAVEWESNGQPENNYKTTPPVLDSDGSFFLVSKLTVDKSRWQQGNVFSCSVMHEALHNHYTQKSLSLSPDYKDDDDK EPKSSDKTHTCPPCPAPELLGGPSVFLFPPKPKDTLMISRTPEVTCVVVDVSHEDPEVKFNWYVDGVEVHNAKTKPREEQYNSTYRVVSVLTVLHQDWLNGKEYKCKVSNKALPAPIEKTISKAKGQPREPQVCTLPPSRDELTKNQVSLWCLVKGFYPSDIAVEWESNGQPENNYKTTPPVLDSDGSFFLYSKLTVDKSRWQQGNVFSCSVMHEALHNRYTQKSLSLSP light: DIVMTQSPLSLPVTPGEPASISCRSSQSLVHSNRNTYLHWYQQKPGQAPRLLIYKVSNRFSGVPDRFSGSGSGTDFTLKISRVEAEDVGVYYCGQGTQVPYTFGQGTKLEIKRTVAAPSVFIFPPSDEQLKSGTASVVCLLNNFYPREAKVQWKVDNALQSGNSQESVTEQDSKDSTYSLSSTLTLSKADYEKHKVYACEVTHQGLSSPVTKSFNRGEC
0.94	CE115HA000 D73N one-arm antibody (antibody, human IgG1, kappa, L234A L235A, N297A, name in Kabat numbering) heavy: QVQLVESGGGVVQPGRSLRLSCAASGFTFSNAWMHWVRQAPGKGLEWVAQIKAKSNNYATYYAESVKGRFTISRDNSKNSLYLQMNSLKTEDTAVYYCRYVHYGAYYGVDAWGQGTTVTVSSASTKGPSVFPLAPSSKSTSGGTAALGCLVKDYFPEPVTVSWNSGALTSGVHTFPAVLQSSGLYSLSSVVTVPSSSLGTQTYICNVNHKPSNTKVDKKVEPKSCDKTHTCPPCPAPEAAGGPSVFLFPPKPKDTLMISRTPEVTCVVVDVSHEDPEVKFNWYVDGVEVHNAKTKPREEQYASTYRVVSVLTVLHQDWLNGKEYKCKVSNKALPAPIEKTISKAKGQPREPQVYTLPPSRCELTKNQVSLSCAVKGFYPSDIAVEWESNGQPENNYKTTPPVLDSDGSFFLVSKLTVDKSRWQQGNVFSCSVMHEALHNHYTQKSLSLSPDYKDDDDK EPKSSDKTHTCPPCPAPELLGGPSVFLFPPKPKDTLMISRTPEVTCVVVDVSHEDPEVKFNWYVDGVEVHNAKTKPREEQYNSTYRVVSVLTVLHQDWLNGKEYKCKVSNKALPAPIEKTISKAKGQPREPQVCTLPPSRDELTKNQVSLWCLVKGFYPSDIAVEWESNGQPENNYKTTPPVLDSDGSFFLYSKLTVDKSRWQQGNVFSCSVMHEALHNRYTQKSLSLSP light: DIVMTQSPLSLPVTPGEPASISCRSSQSLVHSNRNTYLHWYQQKPGQAPRLLIYKVSNRFSGVPDRFSGSGSGTDFTLKISRVEAEDVGVYYCGQGTQVPYTFGQGTKLEIKRTVAAPSVFIFPPSDEQLKSGTASVVCLLNNFYPREAKVQWKVDNALQSGNSQESVTEQDSKDSTYSLSSTLTLSKADYEKHKVYACEVTHQGLSSPVTKSFNRGEC
0.63	CE115HA000 D73T one-arm antibody (antibody, human IgG1, kappa, L234A L235A, N297A, name in Kabat numbering) heavy: QVQLVESGGGVVQPGRSLRLSCAASGFTFSNAWMHWVRQAPGKGLEWVAQIKAKSNNYATYYAESVKGRFTISRDTSKNSLYLQMNSLKTEDTAVYYCRYVHYGAYYGVDAWGQGTTVTVSSASTKGPSVFPLAPSSKSTSGGTAALGCLVKDYFPEPVTVSWNSGALTSGVHTFPAVLQSSGLYSLSSVVTVPSSSLGTQTYICNVNHKPSNTKVDKKVEPKSCDKTHTCPPCPAPEAAGGPSVFLFPPKPKDTLMISRTPEVTCVVVDVSHEDPEVKFNWYVDGVEVHNAKTKPREEQYASTYRVVSVLTVLHQDWLNGKEYKCKVSNKALPAPIEKTISKAKGQPREPQVYTLPPSRCELTKNQVSLSCAVKGFYPSDIAVEWESNGQPENNYKTTPPVLDSDGSFFLVSKLTVDKSRWQQGNVFSCSVMHEALHNHYTQKSLSLSPDYKDDDDK EPKSSDKTHTCPPCPAPELLGGPSVFLFPPKPKDTLMISRTPEVTCVVVDVSHEDPEVKFNWYVDGVEVHNAKTKPREEQYNSTYRVVSVLTVLHQDWLNGKEYKCKVSNKALPAPIEKTISKAKGQPREPQVCTLPPSRDELTKNQVSLWCLVKGFYPSDIAVEWESNGQPENNYKTTPPVLDSDGSFFLYSKLTVDKSRWQQGNVFSCSVMHEALHNRYTQKSLSLSP light: DIVMTQSPLSLPVTPGEPASISCRSSQSLVHSNRNTYLHWYQQKPGQAPRLLIYKVSNRFSGVPDRFSGSGSGTDFTLKISRVEAEDVGVYYCGQGTQVPYTFGQGTKLEIKRTVAAPSVFIFPPSDEQLKSGTASVVCLLNNFYPREAKVQWKVDNALQSGNSQESVTEQDSKDSTYSLSSTLTLSKADYEKHKVYACEVTHQGLSSPVTKSFNRGEC
0.87	CE115HA000 D73K one-arm antibody (antibody, human IgG1, kappa, L234A L235A, N297A, name in Kabat numbering) heavy: QVQLVESGGGVVQPGRSLRLSCAASGFTFSNAWMHWVRQAPGKGLEWVAQIKAKSNNYATYYAESVKGRFTISRDKSKNSLYLQMNSLKTEDTAVYYCRYVHYGAYYGVDAWGQGTTVTVSSASTKGPSVFPLAPSSKSTSGGTAALGCLVKDYFPEPVTVSWNSGALTSGVHTFPAVLQSSGLYSLSSVVTVPSSSLGTQTYICNVNHKPSNTKVDKKVEPKSCDKTHTCPPCPAPEAAGGPSVFLFPPKPKDTLMISRTPEVTCVVVDVSHEDPEVKFNWYVDGVEVHNAKTKPREEQYASTYRVVSVLTVLHQDWLNGKEYKCKVSNKALPAPIEKTISKAKGQPREPQVYTLPPSRCELTKNQVSLSCAVKGFYPSDIAVEWESNGQPENNYKTTPPVLDSDGSFFLVSKLTVDKSRWQQGNVFSCSVMHEALHNHYTQKSLSLSPDYKDDDDK EPKSSDKTHTCPPCPAPELLGGPSVFLFPPKPKDTLMISRTPEVTCVVVDVSHEDPEVKFNWYVDGVEVHNAKTKPREEQYNSTYRVVSVLTVLHQDWLNGKEYKCKVSNKALPAPIEKTISKAKGQPREPQVCTLPPSRDELTKNQVSLWCLVKGFYPSDIAVEWESNGQPENNYKTTPPVLDSDGSFFLYSKLTVDKSRWQQGNVFSCSVMHEALHNRYTQKSLSLSP light: DIVMTQSPLSLPVTPGEPASISCRSSQSLVHSNRNTYLHWYQQKPGQAPRLLIYKVSNRFSGVPDRFSGSGSGTDFTLKISRVEAEDVGVYYCGQGTQVPYTFGQGTKLEIKRTVAAPSVFIFPPSDEQLKSGTASVVCLLNNFYPREAKVQWKVDNALQSGNSQESVTEQDSKDSTYSLSSTLTLSKADYEKHKVYACEVTHQGLSSPVTKSFNRGEC
1.04	CE115HA000 D73R one-arm antibody (antibody, human IgG1, kappa, L234A L235A, N297A, name in Kabat numbering) heavy: QVQLVESGGGVVQPGRSLRLSCAASGFTFSNAWMHWVRQAPGKGLEWVAQIKAKSNNYATYYAESVKGRFTISRDRSKNSLYLQMNSLKTEDTAVYYCRYVHYGAYYGVDAWGQGTTVTVSSASTKGPSVFPLAPSSKSTSGGTAALGCLVKDYFPEPVTVSWNSGALTSGVHTFPAVLQSSGLYSLSSVVTVPSSSLGTQTYICNVNHKPSNTKVDKKVEPKSCDKTHTCPPCPAPEAAGGPSVFLFPPKPKDTLMISRTPEVTCVVVDVSHEDPEVKFNWYVDGVEVHNAKTKPREEQYASTYRVVSVLTVLHQDWLNGKEYKCKVSNKALPAPIEKTISKAKGQPREPQVYTLPPSRCELTKNQVSLSCAVKGFYPSDIAVEWESNGQPENNYKTTPPVLDSDGSFFLVSKLTVDKSRWQQGNVFSCSVMHEALHNHYTQKSLSLSPDYKDDDDK EPKSSDKTHTCPPCPAPELLGGPSVFLFPPKPKDTLMISRTPEVTCVVVDVSHEDPEVKFNWYVDGVEVHNAKTKPREEQYNSTYRVVSVLTVLHQDWLNGKEYKCKVSNKALPAPIEKTISKAKGQPREPQVCTLPPSRDELTKNQVSLWCLVKGFYPSDIAVEWESNGQPENNYKTTPPVLDSDGSFFLYSKLTVDKSRWQQGNVFSCSVMHEALHNRYTQKSLSLSP light: DIVMTQSPLSLPVTPGEPASISCRSSQSLVHSNRNTYLHWYQQKPGQAPRLLIYKVSNRFSGVPDRFSGSGSGTDFTLKISRVEAEDVGVYYCGQGTQVPYTFGQGTKLEIKRTVAAPSVFIFPPSDEQLKSGTASVVCLLNNFYPREAKVQWKVDNALQSGNSQESVTEQDSKDSTYSLSSTLTLSKADYEKHKVYACEVTHQGLSSPVTKSFNRGEC
1.26	CE115HA000 D101A one-arm antibody (antibody, human IgG1, kappa, L234A L235A, N297A, name in Kabat numbering) heavy: QVQLVESGGGVVQPGRSLRLSCAASGFTFSNAWMHWVRQAPGKGLEWVAQIKAKSNNYATYYAESVKGRFTISRDDSKNSLYLQMNSLKTEDTAVYYCRYVHYGAYYGVAAWGQGTTVTVSSASTKGPSVFPLAPSSKSTSGGTAALGCLVKDYFPEPVTVSWNSGALTSGVHTFPAVLQSSGLYSLSSVVTVPSSSLGTQTYICNVNHKPSNTKVDKKVEPKSCDKTHTCPPCPAPEAAGGPSVFLFPPKPKDTLMISRTPEVTCVVVDVSHEDPEVKFNWYVDGVEVHNAKTKPREEQYASTYRVVSVLTVLHQDWLNGKEYKCKVSNKALPAPIEKTISKAKGQPREPQVYTLPPSRCELTKNQVSLSCAVKGFYPSDIAVEWESNGQPENNYKTTPPVLDSDGSFFLVSKLTVDKSRWQQGNVFSCSVMHEALHNHYTQKSLSLSPDYKDDDDK EPKSSDKTHTCPPCPAPELLGGPSVFLFPPKPKDTLMISRTPEVTCVVVDVSHEDPEVKFNWYVDGVEVHNAKTKPREEQYNSTYRVVSVLTVLHQDWLNGKEYKCKVSNKALPAPIEKTISKAKGQPREPQVCTLPPSRDELTKNQVSLWCLVKGFYPSDIAVEWESNGQPENNYKTTPPVLDSDGSFFLYSKLTVDKSRWQQGNVFSCSVMHEALHNRYTQKSLSLSP light: DIVMTQSPLSLPVTPGEPASISCRSSQSLVHSNRNTYLHWYQQKPGQAPRLLIYKVSNRFSGVPDRFSGSGSGTDFTLKISRVEAEDVGVYYCGQGTQVPYTFGQGTKLEIKRTVAAPSVFIFPPSDEQLKSGTASVVCLLNNFYPREAKVQWKVDNALQSGNSQESVTEQDSKDSTYSLSSTLTLSKADYEKHKVYACEVTHQGLSSPVTKSFNRGEC
